Here are results for 1 substance from article PMC12700558, “Aggregation shifts amyloid-β peptides from synaptogenic to synaptotoxic” (The Journal of Clinical Investigation, 2025).

Where “and” joins values, the source holds several entries; their conditions need not be identical. Equal values may be shown once.

Holding throughout (assay type): cell-based
Series [1] concerns human neurons. Description: GCaMP6m live imaging of Ca2+ signals (network activity). Set-up: Ca2+ imaging: Frequency / Ca2+ imaging: Amplitude: unit not given here. The following applies: for Ca2+ imaging: Amplitude / Ca2+ imaging: Frequency / Ca2+ imaging: Synchronicity: single biological replicates (batches), n=3, listed as Ab42 arctic mutation. How it is done: To evaluate the effects of Aβ peptide treatments on neuronal network activity, live calcium imaging was performed using human neurons expressing the genetically encoded calcium indicator GCaMP. At DIV6, human neurons were infected with a lentiviral vector, prepared as described previously at Virus generation, carrying a plasmid encoding GCaMP6m under the control of the human Synapsin-1 promoter, ensuring neuron-specific expression. […] At DIV45, when the neurons had reached full maturation, synaptic activity was recorded. For potentiating synaptic transmission of human neurons, the cells were imaged with ambient 4 mM CaCl2 and 8 mM KCl equilibrated in a HEPES-based buffer (140 mM NaCl, 10 mM HEPES, 20 mM glucose, 1 mM MgCl2). […] Neuronal activity was captured in 2-minute videos at a frame rate of 10 frames/second, allowing for the detection of spontaneous calcium transients indicative of neuronal firing. Following acquisition, the videos were analyzed using MATLAB software (MathWorks). Regions of interest (ROIs) corresponding to 10–20 neurons were selected, and fluorescence intensity changes over time were extracted for each ROI. Analyses focused on quantifying the frequency, amplitude, and synchronicity of calcium signal peaks across the neuronal network. Signal peaks were identified using a peak detection algorithm, and synchronicity was assessed through cross-correlation analyses between neuronal pairs or by calculating network synchrony measures ([26]).

For series [2], the system named is human neurons cocultured with mouse glia. Description: Quantification of 6E10-positive Aβ aggregates in human neuron cultures. The following applies: for Density of 6E10-positive structures (number of structures per area of field of view) / Size of 6E10-positive structures (area fraction of the field of view occupied by aggregates): human neurons/mouse glia, DIV25. As for the experimental part: (§1) Mature human iN cells were washed 3 times with PBS (Gibco) and fixed with 4% PFA (Electron Microscopy Science) and 4% sucrose (Sigma-Aldrich) in PBS for 10 minutes at room temperature. Cells were then washed three times with PBS, followed by permeabilization and blocking with 0.25% Triton-X-100 (Sigma-Aldrich), 2.5% bovine serum albumin (BSA) (GeminiBio) and 2,5% NGS (Sigma-Aldrich) for one hour at room temperature. Incubation with primary antibodies was performed overnight at 4°C in the corresponding blocking buffer ([41]). For endosome analyses, fixing solution contained only 4% PFA and the permeabilization was performed separately before the blocking step, using 0.1% Triton-X-100. Primary Antibodies used include rabbit monoclonal anti-Synapsin-1 (Yenzym antibodies, clone YZ6078, 1:1000 dilution), mouse monoclonal anti-PSD95 (Thermo Fisher Scientific, 7E3-1B8, 1:250 dilution), chicken polyclonal anti-MAP2 (EnCor, CPCA-MAP2, 1:1000 dilution), mouse monoclonal 6E10 (BioLegend, SIG-39320, 1:1000), rabbit monoclonal anti-Synaptophysin (homemade, P580 ([26])), and rabbit monoclonal anti-EEA1(Cell Signaling, C45B10, 1:1000 dilution). Cells were washed 3 times with PBS and incubated for 1 hour at room temperature with Alexa conjugated secondary antibodies: goat anti-chicken Alexa 647, goat anti-rabbit Alexa 546, goat anti-rabbit Alexa 488, and goat anti-mouse Alexa 488, all 1:500. Coverslips were washed once with PBS and once with water to remove salts before mounting, then were mounted using Fluoromount (with DAPI) (Thermo Fisher Scientific, 00-4959-52) on glass slides. All images were taken with the Nikon A1RSi confocal microscope (Nikon Instruments Inc.) for analysis of synaptic puncta using Nikon Analysis Software.
To quantify the density and size of 6E10-immunopositive aggregates, we acquired high-resolution confocal images at 60x magnification using a Nikon Eclipse Ti microscope (Nikon, Japan). All fluorescence parameters, including laser power and detector settings, were held constant throughout image acquisition to ensure comparability across samples. We then processed and analyzed the resulting images with Nikon Analysis Software, employing standardized thresholds for object detection. For analyses conducted in human neurons, the density of 6E10-positive aggregates was determined by calculating the number of discrete objects per unit area of the imaged field. In contrast, for analyses in primary neurons, we recorded the total number of discrete objects within each field. In both cases, we measured particle size as the fraction of the total field occupied by 6E10-positive signals, using a binary region of interest encompassing the entire field of view. This approach allowed for consistent, unbiased quantification of both the distribution and relative size of immunofluorescent aggregates under different experimental conditions.

The subject of series [3] is human neurons. Description: Quantification of synaptic puncta (Synapsin-1 and PSD95), confocal. The settings on record: chronic treatment, DIV45. How it is done:
as §1, with “Coverslips were washed once with PBS and once with water to remove salts before mounting, then were mounted using Fluoromount (with DAPI) (Thermo Fisher Scientific, 00-4959-52) on glass slides. All images were taken with the Nikon A1RSi confocal microscope (Nikon Instruments Inc.) for analysis of synaptic puncta using Nikon Analysis Software.” left out

[4] abbreviates: concentrations that proved synaptotoxic, DIV45.
Where [5] appears, read: 0.1uM chronic, biological replicate 1.
The mark [6] stands for this setting: 0.1uM chronic, biological replicate 2.
The mark [7] stands for this setting: 0.1uM chronic, biological replicate 3.
The mark [8] stands for this setting: 0.2uM chronic, biological replicate 1.
Setting [9] is: 0.2uM chronic, biological replicate 2.
Setting [10] is: 0.2uM chronic, biological replicate 3.

“-.DAEFRHDSGYEVHHQKLVFFAGDVGSNKGAIIGLMVGGVVI.A [Aβ42^arctic]”: the “Neuronal network activity (in words)” value with human neurons [1] (any concentration, chronic treatment, DIV45) is “did not enhance neuronal network activity at any concentration”. Also, in the series on human neurons [1] (setting [4]), the “Spike frequency and amplitude (in words)” value is listed as “pronounced fall”. For the same substance, the “Synchrony (in words)” value with human neurons [1] (setting [4]) is “near-complete breakdown”. In addition, the “Ca2+ imaging: Amplitude” value with human neurons [1] (peptide 0.1 uM) was 0.4784 and 0.3202 and 0.4832; in the series with human neurons [1] (peptide 0.2 uM) it was 0.3279 and 0.286 and 0.3267. Also, the “Ca2+ imaging: Frequency” value with human neurons [1] (peptide 0.1 uM) is 10.7529 and 5.405 and 6.996; in the series with human neurons [1] (peptide 0.2 uM), 0.6879 and 0.8917 and 1.347. The “Ca2+ imaging: Synchronicity” value is 0.2834 and 0.2877 and 0.3503 in the series on human neurons [1] (peptide 0.1 uM); 0.2149 and 0.1382 and 0.2492 in the series on human neurons [1] (peptide 0.2 uM). Moreover, the “Density of 6E10-positive structures (number of structures per area of field of view)” value in series [2] (setting [5]) is 0.009289; in series [2] (setting [6]), 0.01336; in series [2] (setting [7]), 0.01613; in series [2] (setting [8]), 0.03615; in series [2] (setting [9]), 0.04641; in series [2] (setting [10]) it was 0.06233. In addition, the “Size of 6E10-positive structures (area fraction of the field of view occupied by aggregates)” value in series [2] (setting [5]) is reported as 0.02043; in series [2] (setting [6]) it was 0.034; in series [2] (setting [7]), 0.04071; in series [2] (setting [8]), 0.05614; in series [2] (setting [9]), 0.04714; in series [2] (setting [10]), 0.04014. The “6E10-positive Aβ aggregates in treated human neurons (in words)” value in series [2] (chronic exposure, immunofluorescence with 6E10 antibody) is “significant 6E10-positive Aβ aggregates”. For the same substance, in the series with human neurons [3] (high concentrations), the Loss of synapses entry is listed as “greater than 55%”. Also, the “Effect on synapse numbers (in words)” value with human neurons [3] (lower concentrations) is recorded as “did not increase synapse numbers”.
